1 molecule from article PMC11003968 (Scientific Reports, 2024) can be followed below.

The target of this assay is IsdB Y165A, site-directed mutant of Staphylococcus aureus IsdB (Staphylococcus aureus, UniProt Q2FZF0 41-613, Y165A). As to the kind of experiment: ELISA. The settings on record: both partners purified. (In general: In an ELISA, binding on a coated surface is turned into a signal by an enzyme label.)

B1: Human hemoglobin A (oxyhemoglobin) (complex)
chain 1: not shown
chain 2: not shown
On to B1, for which the Kd was found to be 80 ± 11 µM.

One may read the Kd as the concentration at which binding is half-saturated. A higher Kd goes with weaker binding.
